Our source for the abundance fitness values is the Human Domainome abundance scans (Beltran et al. 2025).

± gives the uncertainty stated by the source.

Sequences and labels used below:
B1: POU domain, class 3, transcription factor 2, residues 262 to 338; numbered along this chain, P20265 (parent)
chain: EDTPTSDDLEQFAKQFKQRRIKLGFTQADVGLALGTLYGNVFSQTTICRFEALQLSFKNMCKLKPLLNKWLEEADSS

Variants of B1 are the subject of the data set. In words: abundance fitness (aPCA) (normalised: wild type 0, dead -1); higher = more abundant; growth selection in yeast, the domain comes from the species named. Particulars: Homo sapiens.
As to EDTPTSKDLEQFAKQFKQRRIKLGFTQADVGLALGTLYGNVFSQTTICRFEALQLSFKNMCKLKPLLNKWLEEADSS [D7K], the abundance fitness stood at 0.029 ± 0.4.
In the case of EDTPTSRDLEQFAKQFKQRRIKLGFTQADVGLALGTLYGNVFSQTTICRFEALQLSFKNMCKLKPLLNKWLEEADSS [D7R], the abundance fitness came out at 0.031 ± 0.22.
EDTPTHDDLEQFAKQFKQRRIKLGFTQADVGLALGTLYGNVFSQTTICRFEALQLSFKNMCKLKPLLNKWLEEADSS [S6H]: the abundance fitness was 0.265 ± 0.068.
In the case of EDTPTGDDLEQFAKQFKQRRIKLGFTQADVGLALGTLYGNVFSQTTICRFEALQLSFKNMCKLKPLLNKWLEEADSS [S6G], the abundance fitness is -0.05 ± 0.025.
Take EDTPTEDDLEQFAKQFKQRRIKLGFTQADVGLALGTLYGNVFSQTTICRFEALQLSFKNMCKLKPLLNKWLEEADSS [S6E]: the abundance fitness is -0.038 ± 0.032.
In the case of EDTPTVDDLEQFAKQFKQRRIKLGFTQADVGLALGTLYGNVFSQTTICRFEALQLSFKNMCKLKPLLNKWLEEADSS [S6V], the abundance fitness came out at 0.062 ± 0.027.
For EDTPTCDDLEQFAKQFKQRRIKLGFTQADVGLALGTLYGNVFSQTTICRFEALQLSFKNMCKLKPLLNKWLEEADSS [S6C] the value was 0.058 ± 0.042; for EDTPTPDDLEQFAKQFKQRRIKLGFTQADVGLALGTLYGNVFSQTTICRFEALQLSFKNMCKLKPLLNKWLEEADSS [S6P], 0.059 ± 0.041.
With EDTPTYDDLEQFAKQFKQRRIKLGFTQADVGLALGTLYGNVFSQTTICRFEALQLSFKNMCKLKPLLNKWLEEADSS [S6Y], the abundance fitness amounted to 0.126 ± 0.057.
On to EDTPTKDDLEQFAKQFKQRRIKLGFTQADVGLALGTLYGNVFSQTTICRFEALQLSFKNMCKLKPLLNKWLEEADSS [S6K], for which the abundance fitness came to 0.091 ± 0.033.
Turning to EDTPTMDDLEQFAKQFKQRRIKLGFTQADVGLALGTLYGNVFSQTTICRFEALQLSFKNMCKLKPLLNKWLEEADSS [S6M], the abundance fitness was 0.148 ± 0.04.
For EDTPTQDDLEQFAKQFKQRRIKLGFTQADVGLALGTLYGNVFSQTTICRFEALQLSFKNMCKLKPLLNKWLEEADSS [S6Q] the value was 0.124 ± 0.035; for EDTPTTDDLEQFAKQFKQRRIKLGFTQADVGLALGTLYGNVFSQTTICRFEALQLSFKNMCKLKPLLNKWLEEADSS [S6T], 0.099 ± 0.038; for EDTPTDDDLEQFAKQFKQRRIKLGFTQADVGLALGTLYGNVFSQTTICRFEALQLSFKNMCKLKPLLNKWLEEADSS [S6D], -0.092 ± 0.042.
Consider EDTPTIDDLEQFAKQFKQRRIKLGFTQADVGLALGTLYGNVFSQTTICRFEALQLSFKNMCKLKPLLNKWLEEADSS [S6I], for which the abundance fitness amounted to 0.011 ± 0.052.
EDTPTNDDLEQFAKQFKQRRIKLGFTQADVGLALGTLYGNVFSQTTICRFEALQLSFKNMCKLKPLLNKWLEEADSS [S6N]: the abundance fitness is -0.032 ± 0.049.
Turning to EDTPTADDLEQFAKQFKQRRIKLGFTQADVGLALGTLYGNVFSQTTICRFEALQLSFKNMCKLKPLLNKWLEEADSS [S6A], the abundance fitness turned out to be 0.108 ± 0.028.
As to EDTPTWDDLEQFAKQFKQRRIKLGFTQADVGLALGTLYGNVFSQTTICRFEALQLSFKNMCKLKPLLNKWLEEADSS [S6W], the abundance fitness amounted to 0.098 ± 0.03.
Turning to EDTPNSDDLEQFAKQFKQRRIKLGFTQADVGLALGTLYGNVFSQTTICRFEALQLSFKNMCKLKPLLNKWLEEADSS [T5N], the abundance fitness came out at 0.026 ± 0.046.
As to EDTPQSDDLEQFAKQFKQRRIKLGFTQADVGLALGTLYGNVFSQTTICRFEALQLSFKNMCKLKPLLNKWLEEADSS [T5Q], the abundance fitness is -0.082 ± 0.041.
EDTPRSDDLEQFAKQFKQRRIKLGFTQADVGLALGTLYGNVFSQTTICRFEALQLSFKNMCKLKPLLNKWLEEADSS [T5R]: the abundance fitness is -0.082 ± 0.027.
As for EDTPYSDDLEQFAKQFKQRRIKLGFTQADVGLALGTLYGNVFSQTTICRFEALQLSFKNMCKLKPLLNKWLEEADSS [T5Y], the abundance fitness was -0.337 ± 0.089.
Regarding EDTPSSDDLEQFAKQFKQRRIKLGFTQADVGLALGTLYGNVFSQTTICRFEALQLSFKNMCKLKPLLNKWLEEADSS [T5S], the abundance fitness is -0.008 ± 0.032.
Take EDTPMSDDLEQFAKQFKQRRIKLGFTQADVGLALGTLYGNVFSQTTICRFEALQLSFKNMCKLKPLLNKWLEEADSS [T5M]: the abundance fitness was -0.056 ± 0.044.
For EDTPVSDDLEQFAKQFKQRRIKLGFTQADVGLALGTLYGNVFSQTTICRFEALQLSFKNMCKLKPLLNKWLEEADSS [T5V] the value was -0.108 ± 0.031.
For the variant EDTPFSDDLEQFAKQFKQRRIKLGFTQADVGLALGTLYGNVFSQTTICRFEALQLSFKNMCKLKPLLNKWLEEADSS [T5F], the abundance fitness was -0.109 ± 0.094.
Take EDTPCSDDLEQFAKQFKQRRIKLGFTQADVGLALGTLYGNVFSQTTICRFEALQLSFKNMCKLKPLLNKWLEEADSS [T5C]: the abundance fitness worked out at 0.038 ± 0.046.
On to EDTPISDDLEQFAKQFKQRRIKLGFTQADVGLALGTLYGNVFSQTTICRFEALQLSFKNMCKLKPLLNKWLEEADSS [T5I], for which the abundance fitness was -0.006 ± 0.075.
For EDTPDSDDLEQFAKQFKQRRIKLGFTQADVGLALGTLYGNVFSQTTICRFEALQLSFKNMCKLKPLLNKWLEEADSS [T5D], the abundance fitness was -0.042 ± 0.04.
As for EDTPPSDDLEQFAKQFKQRRIKLGFTQADVGLALGTLYGNVFSQTTICRFEALQLSFKNMCKLKPLLNKWLEEADSS [T5P], the abundance fitness was -0.138 ± 0.042.
Consider EDTPLSDDLEQFAKQFKQRRIKLGFTQADVGLALGTLYGNVFSQTTICRFEALQLSFKNMCKLKPLLNKWLEEADSS [T5L], for which the abundance fitness was -0.041 ± 0.034.
For EDTPESDDLEQFAKQFKQRRIKLGFTQADVGLALGTLYGNVFSQTTICRFEALQLSFKNMCKLKPLLNKWLEEADSS [T5E], the abundance fitness was -0.144 ± 0.039.
EDTPHSDDLEQFAKQFKQRRIKLGFTQADVGLALGTLYGNVFSQTTICRFEALQLSFKNMCKLKPLLNKWLEEADSS [T5H]: the abundance fitness is -0.079 ± 0.064.
As to EDTPTSDCLEQFAKQFKQRRIKLGFTQADVGLALGTLYGNVFSQTTICRFEALQLSFKNMCKLKPLLNKWLEEADSS [D8C], the abundance fitness was -0.121 ± 0.057.
On to EDTPTSDALEQFAKQFKQRRIKLGFTQADVGLALGTLYGNVFSQTTICRFEALQLSFKNMCKLKPLLNKWLEEADSS [D8A], for which the abundance fitness is -0.006 ± 0.038.
In the case of EDTPTSDELEQFAKQFKQRRIKLGFTQADVGLALGTLYGNVFSQTTICRFEALQLSFKNMCKLKPLLNKWLEEADSS [D8E], the abundance fitness is 0.079 ± 0.041.
